According to article PMC2115704:
Each block holds one substance with its values, some of them ahead of it.

Legend:
Test in all cases: SDS-PAGE in the absence of reductant
[1] = target: endogenous COS-1 cell TSP (African green monkey (endogenous in COS-1))
[2] = target: truncated TSP protein Pro449 (human)
[3] = target: truncated TSP protein Val333 (human)

Sequence of truncated TSP protein Pro449 (domain or fragment) (P07996 374-552): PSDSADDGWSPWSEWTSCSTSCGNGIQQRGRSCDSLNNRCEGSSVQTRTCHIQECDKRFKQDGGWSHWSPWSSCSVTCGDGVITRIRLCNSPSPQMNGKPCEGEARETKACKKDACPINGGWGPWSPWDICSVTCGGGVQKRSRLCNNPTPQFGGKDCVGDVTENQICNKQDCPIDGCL
Sequence of truncated TSP protein Val333 (domain or fragment) (P07996 374-552): as above

stoichiometry N [1]: 3
Substance: endogenous COS-1 cell TSP (natural protein)

stoichiometry N [2]: 3
Substance: truncated TSP protein Pro449 (domain or fragment)

stoichiometry N [3]: 3
Substance: truncated TSP protein Val333 (domain or fragment)
